The source of these data is publication PMC6538622.

The target in experiment [1] is Acinetobacter baumannii RNase E N-terminal catalytic domain (Acinetobacter baumannii). Put plainly: SEC.
Experiment [2] has the same target. Briefly: SEC-SAXS; 5-10 mg/ml protein in 10 mM DTT, 10 mM MgCl2, 0.5 M NaCl, 20 mM Tris pH 8; KW403-4F size-exclusion column, B21 beamline (Diamond Light Source); molecular mass from I(0).
For experiment [3], the target named is Francisella tularensis RNase E N-terminal catalytic domain (Francisella tularensis) (UniProt Q5NFK7). Put plainly: SEC.
For experiment [4] the target is unchanged. Briefly: SEC-SAXS.
Experiment [5] concerns the target Yersinia pestis RNase E N-terminal catalytic domain (Yersinia pestis). Briefly: SEC.
The target is the same in experiment [6]. Put plainly: SEC-SAXS.

Consider “Acinetobacter baumannii RNase E N-terminal catalytic domain (domain or fragment)”, for which the stoichiometry N in experiment [1] and in experiment [2] was 4 in each case.
In the case of “Francisella tularensis RNase E N-terminal catalytic domain (from UniProt Q5NFK7 1-543) (domain or fragment)”, the stoichiometry N in experiment [3] and in experiment [4] was 4 each time.
In the case of “Yersinia pestis RNase E N-terminal catalytic domain (from UniProt A0AAX2HZU4 1-529) (domain or fragment)”, the stoichiometry N in experiment [5] and in experiment [6] was 4 in each case.
